Source: US20230183291A1 (Bicycle, published 2023)
Numbered stars: 1 amine (or outer) side, 2 acyl side, 3 side chain; on linkers, the order of the positions; unused ones are H or OH. Bridge positions count the residues as written; N and C are the ends. Square brackets hold non-standard residues; d marks the D form. Ends that are not written are not given here. TATA = O=C(CC[*:1])N1CN(C(=O)CC[*:2])CN(C(=O)CC[*:3])C1; Phe(4-Cl) = N[C@@H](Cc1ccc(Cl)cc1)C(=O)O; Hyp = O=C(O)[C@@H]1C[C@@H](O)CN1; hArg = N=C(N)NCCCC[C@H](N)C(=O)O; PYA = propargyl-acid

How the values were obtained:
[1] = target: T1, Biotinylated Human ACE2, His, Avitag protein (ACROBiosystems, AC2-H82E6) (human, UniProt Q9BYF1 18-740); assay: SPR single cycle kinetics, ACE2 captured on CAP chip, peptide analyte; geometric mean; † high bulk contribution observed, treat with caution
T1 construct: also called biotinylated ACE2; ACE2 protein; not shown: His tag and Avitag
Description: (§1) Binding of bicyclic peptides of the invention to Biotinylated Human ACE2, His, Avitag™ protein (ACROBiosystems, AC2-H82E6) was assessed by a SCK analysis. Experiments were performed at 25° C. on a Biacore T200 (Cytiva) running Biacore T200 Control software V2.0.1 and Evaluation software V3.0 (Cytiva). HBS-EP+ (Cytiva) was used as running buffer as well as for ligand and analyte dilutions. Biotin CAPture reagent was loaded onto a Series S Sensor CAP Chip (Cytiva) followed by loading of the ACE2 protein at a flow rate of 2 μl/min. The surface was then allowed to stabilise.
(§2) SCK data was obtained using bicyclic peptides of the invention as analytes injected at a flow rate of 30 μl/min to minimise any potential mass transfer effects. […] The association phases were monitored for 100 seconds for each of the four injections of increasing concentrations of analyte and a single dissociation phase was measured for 400 seconds following the last injection of analyte. Regeneration of the sensor chip surface was conducted using the CAP Chip standard regeneration buffer (Cytiva).
(§3) The signal from the reference channel Fc1 (no ACE2 captured) was subtracted from that of Fc2, Fc3 and Fc4 to correct for bulk effect and differences in non-specific binding to a reference surface. The signal from each blank run (Fc2-ACE2 captured but no antigen) was subtracted to correct for differences in surface stability. […]

[2] = target: T1, Biotinylated Human ACE2, His, Avitag …; assay: SPR single cycle kinetics, biotinylated ACE2 captured on CAP chip, peptide as analyte
Description: as §1, §2, §3

[3] = target: T1, Biotinylated Human ACE2, His, Avitag …; assay: SPR multiple cycle kinetics, ACE2 captured on CAP chip, peptide analyte 6.25-100 nM; geometric mean
Description: (§4) Binding of bicyclic peptides of the invention to Biotinylated Human ACE2, His, Avitag™ protein (ACROBiosystems, AC2-H82E6) was assessed by a MCK analysis. Experiments were performed at 25° C. on a Biacore T200 (Cytiva) running Biacore T200 Control software V2.0.1 and Evaluation software V3.0 (Cytiva). HBS-EP+(Cytiva) was used as running buffer as well as for ligand and analyte dilutions. Biotin CAPture reagent was loaded onto a Series S Sensor CAP Chip (Cytiva) followed by loading of biotinylated ACE2 at a flow rate of 2 μl/min. The surface was then allowed to stabilise.
MCK data was obtained using bicyclic peptides of the invention as analytes injected at a flow rate of 30 μl/min to minimise any potential mass transfer effects. A five point, two-fold dilution range from 6.25 nM to 100 nM of analyte was prepared in running buffer. For each concentration, the association phases were monitored for 250 seconds and the dissociation phase was measured for 450 seconds. Regeneration of the sensor chip surface was conducted between cycles using the CAP Chip standard regeneration buffer (Cytiva). Multiple repeats of a blank and of Bicycle were programmed into the kinetic run in order to check the stability of both the surface and analyte over the kinetic cycles.
(§5) The signal from the reference channel Fc1 (no ACE2 captured) was subtracted from that of Fc2, Fc3 and Fc4 to correct for bulk effect and differences in non-specific binding to a reference surface. The signal from each blank run (Fc2-ACE2 captured but no antigen) was subtracted to correct for differences in surface stability. The double referenced sensorgrams were fitted with the Langmuir (1:1) binding model (Equation 1a above) where the closeness of fit of the data to the model is evaluated using the Chi square value which describes the deviation between the experimental and fitted (observed and expected) curves (Equation 1 b above).

[4] = target: T1, Biotinylated Human ACE2, His, Avitag …; assay: SPR single cycle kinetics, ACE2 captured on CAP chip, peptide analyte; geometric mean; * Rmax set to 10
Description: as §1, §2
as §5, with “below)” for “above)”, “1b below).” for “1 b above).”

[5] = target: T1, Biotinylated Human ACE2, His, Avitag …; assay: SPR multiple cycle kinetics, biotinylated ACE2 captured on CAP chip, peptide as analyte
Description: as §4
MCK data was obtained using bicyclic peptides of the invention as analytes injected at a flow rate of 30 μl/min to minimise any potential mass transfer effects. […] For each concentration, the association phases were monitored for 250 seconds and the dissociation phase was measured for 450 seconds. […]
as §5, with “The signal from each blank run (Fc2-ACE2 captured but no antigen) was subtracted to correct for differences in surface stability.” left out

T1 sequence (Q9BYF1 18-740 limits assumed): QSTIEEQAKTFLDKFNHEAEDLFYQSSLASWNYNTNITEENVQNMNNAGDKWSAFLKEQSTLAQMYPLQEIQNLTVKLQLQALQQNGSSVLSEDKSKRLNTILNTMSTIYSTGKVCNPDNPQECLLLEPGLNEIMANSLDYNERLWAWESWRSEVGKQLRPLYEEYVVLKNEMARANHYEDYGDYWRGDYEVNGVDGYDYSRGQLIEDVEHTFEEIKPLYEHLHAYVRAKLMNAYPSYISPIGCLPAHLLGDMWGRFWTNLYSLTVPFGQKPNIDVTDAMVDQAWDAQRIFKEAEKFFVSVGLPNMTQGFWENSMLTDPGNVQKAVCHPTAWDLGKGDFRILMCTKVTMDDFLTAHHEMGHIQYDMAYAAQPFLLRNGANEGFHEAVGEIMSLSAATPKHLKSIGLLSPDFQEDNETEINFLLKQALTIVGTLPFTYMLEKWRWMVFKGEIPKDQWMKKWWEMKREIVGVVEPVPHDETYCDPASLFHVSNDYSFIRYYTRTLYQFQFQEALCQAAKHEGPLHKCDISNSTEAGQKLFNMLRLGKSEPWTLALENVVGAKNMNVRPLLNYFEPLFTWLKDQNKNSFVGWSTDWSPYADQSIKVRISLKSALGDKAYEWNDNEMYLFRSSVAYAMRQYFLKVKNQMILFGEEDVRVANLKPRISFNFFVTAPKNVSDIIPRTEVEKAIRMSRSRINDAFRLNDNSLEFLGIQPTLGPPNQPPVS

B1: BCY17344 (peptide)
peptide: ACNAVLCSWARANSFCAK(PYA)
modifications: linker 2-7-16 via TATA
notes: bicyclic peptide, TATA scaffold
B1 gave a Kd [1] of 3.2 nM.

B2: BCY17340 (peptide)
peptide: ACNAVLCSWARANS[Phe(4-Cl)]CA
modifications: linker 2-7-16 via TATA
notes: as for B1
In the case of B2, the Kd [1] is reported as 16.9 nM.

B3: BCY18659 (peptide)
peptide: Ac-CNDVLCSWA[hArg]ANSFC
modifications: linker 1-6-15 via TATA
notes: as for B1
B3: no binding [2].

B4: BCY18783 (peptide)
peptide: Ac-CNEVLCSWA[hArg]ANSFC
modifications: linker 1-6-15 via TATA
notes: as for B1
B4: no binding [2].

B5: BCY18551 (peptide)
peptide: Ac-CNTVLCGWA[hArg]ANSLCK(PYA)
modifications: linker 1-6-15 via TATA
notes: as for B1
B5 gave a Kd [3] of 19.5 nM and a Kd [4] of 15.4 nM.

B6: BCY19024 (peptide)
peptide: Ac-CNAVLCSWA[hArg][Hyp]NSFC
modifications: linker 1-6-15 via TATA
notes: as for B1
B6: no binding [5].
